These results are taken from patent publication US20250019435A1 (ALBERT EINSTEIN COLLEGE OF MEDICINE, published 2025).

T1: PVR expressed on transduced cells (PVR-YFP) (UniProt P15151 21-417)
T1 construct: whole, on cells; On NIH 3T3 or Raji cells; also called PVR/3T3; PVR-YFP/3T3; not shown: YFP ('PVR-YFP ... fusion protein')
T1 sequence (looked up): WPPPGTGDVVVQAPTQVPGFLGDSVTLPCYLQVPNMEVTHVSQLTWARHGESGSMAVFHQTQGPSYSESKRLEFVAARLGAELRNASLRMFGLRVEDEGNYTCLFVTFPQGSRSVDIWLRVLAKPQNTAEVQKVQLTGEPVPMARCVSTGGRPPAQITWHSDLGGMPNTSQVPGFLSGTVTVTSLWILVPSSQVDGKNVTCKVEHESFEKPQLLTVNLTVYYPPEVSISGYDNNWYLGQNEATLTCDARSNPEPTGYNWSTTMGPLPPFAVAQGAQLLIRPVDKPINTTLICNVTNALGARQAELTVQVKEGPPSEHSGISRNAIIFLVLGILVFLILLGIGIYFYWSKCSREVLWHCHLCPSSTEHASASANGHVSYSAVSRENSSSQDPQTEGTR

T2: PVR-Ig fusion protein (UniProt P15151 27-343)
T2 construct: Bought (R&D Systems); also called PVR-Ig protein; not shown: Ig part, detected with anti-human IgG Fc
T2 sequence (looked up): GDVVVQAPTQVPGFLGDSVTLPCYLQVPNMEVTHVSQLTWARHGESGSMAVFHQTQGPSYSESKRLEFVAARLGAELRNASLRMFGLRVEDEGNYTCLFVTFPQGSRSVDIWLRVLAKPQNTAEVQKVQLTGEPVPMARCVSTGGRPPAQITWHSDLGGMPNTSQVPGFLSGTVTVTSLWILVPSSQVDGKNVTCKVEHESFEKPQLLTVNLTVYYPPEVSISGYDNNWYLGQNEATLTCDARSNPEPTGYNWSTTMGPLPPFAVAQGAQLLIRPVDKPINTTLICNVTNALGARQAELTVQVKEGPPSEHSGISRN

B1: Y328F (receptor)
receptor chain: HEGGQDKPLLSAWPSAVVPRGGHVTLLCRSRLGFTIFSLYKEDGVPVPELYNKIFWKSILMGPVTPAHAGTYRCRGSHPRSPIEWSAPSNPLVIVVTGLFGKPSLSAQPGPTVRTGENVTLSCSSRSSFDMYHLSREGRAHEPRLPAVPSVNGTFQADFPLGPATHGGTYTCFGSLHDSPYEWSDPSDPLLVSVTGNSSSSSSSPTEPSSKTGIRRHLHILIGTSVAIILFIILFFFLLHCCCSNKKNAAVMDQEPAGDRTVNREDSDDQDPQEVTYAQLDHCVFTQTKITSPSQRPKTPPTDTTMFMELPNAKPRSLSPAHKHHSQALRGSSRETTALSQNRVASSHVPAAGI
notes: also called KIR2DL5 Y328F (ITSM mutant) on transduced primary NK cells
B2: anti-KIR2DL5 mAb clone B2A18 (antibody, V domains shown)
VH: QIQLVQSGPEVKKPGETVKISCKASGYTFTKYGMNWVKQAPGKGLKWMGWINTNTGESTYAEDFKGRFAFSLETSANTAFLQINNLKNEDTAAYFCARWGPYGSSLYYGMDYWGQGTSVTVS
VL: DIQMTQSSSSFSISLGDRVTITCRASEDLYNRLAWYQQKPGNAPRLLISGATSLETGVPSRFSGSGSGKDFTLSIPSVQTEDVGTYYCQQYRYTPWTFGGGTTLN
notes: also called B2A18, (IgG1, κ)
B3: D0-deleted KIR2DL5 expressed on 3T3 cells (receptor)
chain: GLFGKPSLSAQPGPTVRTGENVTLSCSSRSSFDMYHLSREGRAHEPRLPAVPSVNGTFQADFPLGPATHGGTYTCFGSLHDSPYEWSDPSDPLLVSVTGNSSSSSSSPTEPSSKTGIRRHLHILIGTSVAIILFIILFFFLLHCCCSNKKNAAVMDQEPAGDRTVNREDSDDQDPQEVTYAQLDHCVFTQTKITSPSQRPKTPPTDTTMYMELPNAKPRSLSPAHKHHSQALRGSSRETTALSQNRVASSHVPAAGI
notes: the signal peptide 1-21 is left out; also called KIR2DL5 dD0; DO-deleted KIR2DL5
B4: D2-deleted KIR2DL5 expressed on 3T3 cells (receptor)
chain: HEGGQDKPLLSAWPSAVVPRGGHVTLLCRSRLGFTIFSLYKEDGVPVPELYNKIFWKSILMGPVTPAHAGTYRCRGSHPRSPIEWSAPSNPLVIVVTGNSSSSSSSPTEPSSKTGIRRHLHILIGTSVAIILFIILFFFLLHCCCSNKKNAAVMDQEPAGDRTVNREDSDDQDPQEVTYAQLDHCVFTQTKITSPSQRPKTPPTDTTMYMELPNAKPRSLSPAHKHHSQALRGSSRETTALSQNRVASSHVPAAGI
notes: also called KIR2DL5 dD2
B5: anti-KIR2DL5 mAb clone B33C12 (antibody, V domains shown)
VH: QVQLQQSGAELVKPGASVKMSCKAFGYTFTSFPIEWMKQNHGKSLEWIGNFHPSNDDTKYNEKFNGKAKLTAETSSKTVYLELSRLTSDDSAVYYCARGSDYSFALDYWGQGTSVTVSS
VL: GIVLTQSPASLAVSLGQRATISCRASESVDSYGYSFMHWYQQKPGQPPKLLIYRASNLKSGIPARFSGSGSRTDFTLTINPVEADDVATYYCQQSNEDPWTFGGGTKLEIK
notes: also called B33C12 (IgG2a, κ)
B6: anti-KIR2DL5 mAb clone B11B4 (antibody, V domains shown)
VH: B5 VH with A9G, S54Y, S91C, A92S, A105G
VL: GIVLTQSPASLVVSLGQRATISCRASESVDSYGYSFMHWYQQKPGQPPKLLIYRASNLKSGIPARFSGSGCRTDFTLTINPVEADDVATYYCQQSNEDPWTFGGGTKAGN
notes: also called B11B4 (IgG2b, κ)

Assay [1] addresses T1, PVR expressed on transduced cells …. The assay can be described thus: confocal imaging of conjugates of transduced primary NK cells with PVR-YFP/Raji cells. The protocol: The KIR2DL5⁻ primary NK cells were transduced with WT KIR2DL5 or the indicated mutants, and then examined for protein expression with F8B30 (open) or mIgG1 (shaded). NC, negative control. Data are representative of 2 independent experiments. (B and C) Transduced primary NK cells were treated with (+) or without (−) pervanadate (VO₄) for 5 minutes. Cell lysates were immunoprecipitated with anti-KIR2DL5 antibodies. Phospho-tyrosine (4G10), SHP-1, SHP-2, and total KIR2DL5 were detected by immunoblots (B). Quantification of p-Tyr, SHP-1, and SHP-2 association with WT or mutant KIR2DL5 in VO₄-treated NK cells (C). WCL, whole-cell lysates. (D) Representative imaging of cell conjugates acquired upon the indicated transduced primary NK and PVR/Raji cell contact followed by staining with anti-KIR2DL5 mAb and DAPI. Scale bars: […]. (E) Lysis of scramble control or PVR^KO A427 (top) and Jurkat (bottom) by WT or mutant KIR2DL5-transduced primary NK cells at the indicated E/T ratios. Data are mean for duplicate measurements and representative of 3 independent experiments with 3 different donors. In A, and B, data are representative of 3 independent experiments. *P<0.05, **P<0.01, ***P<0.001, ****P<0.0001, by 1-way ANOVA (C), or paired Student's t test (D).
NK-Raji conjugation assay. […] Cell mixtures were then loaded onto poly-L-lysine-precoated slides and fixed with 4% formaldehyde at RT for 15 minutes. After blocking with 5% normal goat serum at RT for 1 hour, cells were stained with 20 µg/mL anti-KIR2DL5 antibodies (a mixture of 8 homemade clones) at 4° C. overnight and then with goat anti-mIgG (H+L) Alexa Flour 647 (Invitrogen) at RT for 2 hours. The cells were permeabilized by 0.1% Triton X-100 at RT for 15 minutes and stained with Alexa Flour Plus 405 Phalloidin (Life Technologies) for 1 hour at RT. The slides were then mounted by Gold Antifade Mountant without DAPI (Life Technologies). The mean pixel intensity of synapse and non-synapse was respectively measured and statistically analyzed. Images were acquired by Leica SP8 confocal microscope and processed by ImageJ (NIH).

In assay [2] the target is B3. The assay is described as follows: flow cytometry, transduced 3T3 cells. The text has this: FIG. 15A-15E: Characterization of anti-KIR2DL5 specific monoclonal antibodies. (Related to FIGS. 8A-8D). (A) The protein sequence of KIR2DL5. The extracellular domain of KIR2DL5 was composed of tandem DO-D2 domains. The cytoplasmic tail of KIR2DL5 contained an immunoreceptor tyrosine-based inhibition motif (ITIM) and immunoreceptor tyrosine-based switch motif (ITSM). Domains were predicted and annotated based on UniProtKB (Q8N109). (B) The specificity of anti-KIR2DL5 mAbs. 3T3 cells transduced with indicated KIR family members were stained with 5 μg/ml of indicated anti-KIR2DL5 mAbs (open) or mIgG1 (shaded). (C, D) The affinity of anti-KIR2DL5 mAbs. C: Kinetic binding curves for F8B30 and B19C11. D: Data were acquired from kinetic binding curves detected by the Octet Red96 BLI instrument for indicated clones. (E) 3T3 cells transduced with DO-deleted (KIR2DL5 dD0) or D2-deleted KIR2DL5 (KIR2DL5 dD2) were stained with 5 μg/ml of indicated anti-KIR2DL5 mAbs. In B-E, data are representative of three independent experiments.
(In general: Flow cytometry measures light scatter and fluorescence of single cells or particles in a stream.)

Assay [3] concerns the target T3, KIR2DL5A*005 allele expressed on 3T3 cells (human).
T3 construct: also called 2D5A*005
The assay can be described thus: flow cytometry, 3T3 cells expressing KIR2DL5 alleles, mAb 5 µg/ml.

The target in assay [4] is T4, KIR2DL5-Ig fusion protein (KIR2DL5 extracellular domain fused to human IgG1 Fc) (human, UniProt Q8N109 22-240).
T4 construct: A D0-only fusion (H22-A128) also exists; also called KIR2DL5-human Ig fusion protein; KIR2DL5 DO-D2-Ig; not shown: human IgG1 Fc tag
The assay can be described thus: BLI, Octet RED96; KIR2DL5-Ig captured on anti-human Fc biosensors, mAb in solution; global 1:1 fit. The protocol: Biolayer interferometry. The affinities of anti-KIR2DL5 mAbs were analyzed by biolayer interferometry using an Octet RED96 system (ForteBio, Pall LLC). Briefly, anti-human Fc capture biosensors (ForteBio, Pall LLC) were preloaded with KIR2DL5-Ig and then dipped into a solution containing mAb at 2-fold serial dilutions (from 200 to 1.5 μg/mL). Data were analyzed using Forte Pall (Port Washington, New York, USA) software 9.0. The global data fitting to a 1:1 binding model was used to estimate values for the Kₒₙ (association rate constant), Koff (dissociation rate constant), and KD (equilibrium dissociation constant).
A general note: Biolayer interferometry detects binding as a change in optical thickness at a sensor tip.

For a further assay, the target named is T2, PVR-Ig fusion protein. The assay can be described thus: flow cytometry, PVR-Ig on transduced 3T3 cells. Here is the method:
FIG. 10A-E: Allelic polymorphism affected PVR binding of KIR2DL5. (A) Flow cytometric analysis of PVR-Ig or CD112-Ig (open) or control hIg (shaded) binding to KIR2DL5/3T3. (B) Flow cytometric analysis of PVR-Ig binding to KIR2DL5/3T3 in the presence of increasing concentrations of F8B30. (C) KIR2DL5 bound to different sites of PVR from other receptors. PVR-Ig protein was preincubated with indicated His-tagged protein and then stained KIR2DL5/3T3 cells. […] (D) Flow cytometric analysis of PVR-Ig (open) or control hIg (shaded) binding on 3T3 cells expressing WT, DO-deleted, or D2-deleted KIR2DL5. Parental 3T3 cells were used as a negative control. (E) Flow cytometric analysis of PVR-Ig or control hIg (shaded) binding on 3T3 cells expressing different KIR2DL5 alleles. In A-E, data are representative of 2 independent experiments.
Fusion protein cell binding assays. PVR-Ig, CD112-Ig, or hIgG (R&D Systems) was incubated with corresponding 3T3 cells on ice for 45 minutes, followed by incubation with APC- or PE-conjugated anti-human IgG Fc antibody (1:100; clone HP6017, BioLegend) on ice for 30 minutes. Cells were then acquired on an LSR II flow cytometer (BD Biosciences). In the anti-KIR2DL5 mAb blocking assay, KIR2DL5/3T3 cells were preincubated with a serial concentration of anti-KIR2DL5 mAb F8B30 or mIgG1 on ice for 30 minutes. […]

Changes are numbered by the printed parent chain. Names may count otherwise.

For B1, the binding result in assay [1] is “binds”.
Usually Kd stands for the constant that tells how readily two partners part at equilibrium. By koff is commonly meant the first-order rate constant of dissociation. Read a low koff as a long-lived complex. A word on the kon: it is the rate constant with which the complex forms. For the molecule B2, the binding result in assay [2] is given as “no binding (tested: 5 µg/ml)”. Besides, the binding result in assay [3] is listed as “binds”. In assay [4], the Kd came to 0.104 nM, the koff worked out at 0.000175 s⁻¹ and the on-rate constant (kon) came to 1.68e+06 M⁻¹ s⁻¹.
In the case of B3, in the assay with PVR-Ig fusion protein, the binding result is given as “no binding”.
The same measure, in the same setting: in the case of B4 it was “no binding”.
Consider B5, for which, in assay [2], the binding result is recorded as “no binding (tested: 5 µg/ml)”. Further, the binding result in assay [3] was “binds”. Moreover, in assay [4], the equilibrium dissociation constant (Kd) came out at 0.359 nM, the off-rate (koff) came to 0.000299 s⁻¹ and the kon was 835000 M⁻¹ s⁻¹.
In the case of B6, the binding result in assay [2] was “no binding (tested: 5 µg/ml)”. Moreover, in assay [4], the dissociation constant Kd amounted to 0.245 nM, the koff worked out at 0.000202 s⁻¹ and the kon is 825000 M⁻¹ s⁻¹.
